Experimental data from paper PMC6317713.

Legend:
Assay in all cases: two-hybrid
[1] = biological target: DIG10.3 monomer (DIG0), computationally designed digoxigenin-binding protein
[2] = biological target: PRO0 (DIG10.3 Y34F, Y99F, Y101F), progesterone ligand-binding domain
[3] = biological target: DIG1b (DIG10.3 E83R), charge swap design
[4] = biological target: DIG2b (DIG10.3 I102A), knob-in-hole design

Substance: DIG1 (DIG10.3 E83V) (designed binder)
- fold activation of the luciferase reporter with digoxigenin [1]: 400 fold
- fold luciferase activity with both ligands over either ligand alone [2]: 20 fold

Substance: DIG1a (DIG10.3 R116E), charge swap design (designed binder)
- fold increase in reporter activation with digoxigenin [3]: > 500 fold

Substance: DIG2a (DIG10.3 I102M, V104F), knob-in-hole design (designed binder)
- fold increase in reporter activation with digoxigenin [4]: > 500 fold

Substance: DIG10.3 monomer (DIG0), computationally designed digoxigenin-binding protein (designed binder)
- fold increase in luciferase activity with 50 uM digoxigenin [1]: 20 fold

Substance: PRO0 (DIG10.3 Y34F, Y99F, Y101F), progesterone ligand-binding domain (designed binder)
- fold increase in reporter activity with 1 uM progesterone [2]: 200 fold
